In patent publication US20110263454A1, “Methods of Identifying Functional Characteristics of Promoters, Transcription Modifying Proteins and Transcription Modulating Agents” (Salk Institute for Biological Studies, priority 2008, published 2011):

What was measured:
mCAR promoter = experiment: NHR-promoter luciferase screen, mCAR promoter; assay type: cell-based, mouse; settings: for luciferase activity normalized to lacZ activity and to a control, mCAR: mCAR promoter-luciferase, CV-1 cells, NHR +/- ligand, control = 1.00; for Luc. act., normalized to lacZ / Normalized Luc. act., normalized to control: mCAR promoter, HR/ligand component
Procedure, shortened: (§1)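 CV-1 cells were co-transfected with 50 ng NHR (homodimer or NHR/RXR heterodimer), 100 ng promoter-luciferase construct and 50 ng LacZ. Luciferase was normalized to LacZ and to a no-NHR/no-ligand control.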

mNPY promoter = experiment: NHR-promoter luciferase screen, mNPY promoter; assay type: cell-based, mouse; settings: for Results of assays of transcription factor (+/- ligand) with mNPY: Table 6d, luciferase activity relative to control (control = 1.00); for Luc. act., normalized to lacZ / Normalized Luc. act., normalized to control: mNPY promoter, HR component with or without ligand; for Normalized Luc. act., normalized to control: relative to control
Procedure, shortened: as §1

mDio1 promoter = experiment: NHR-promoter luciferase screen, mDio1 promoter; assay type: cell-based, mouse; settings: for Luc. act., normalized to lacZ / Normalized Luc. act., normalized to control: Dio1, HR component without or with its ligand; for mDio1 promoter reporter activity: transcription factor +/- ligand, control = 1.00
Procedure, shortened: as §1

hCAR promoter = experiment: NHR-promoter luciferase screen, hCAR promoter; assay type: cell-based, human; settings: for luciferase activity normalized to lacZ activity and to a control, hCAR: hCAR promoter-luciferase, CV-1 cells, NHR +/- ligand, control = 1.00; for Luc. act., normalized to lacZ / Normalized Luc. act., normalized to control: hCAR promoter, HR/ligand component
Procedure, shortened: as §1

mGhrelin promoter = experiment: NHR-promoter luciferase screen, mGhrelin promoter; assay type: cell-based, mouse; settings: for Luc. act., normalized to lacZ / Normalized Luc. act., normalized to control: Table 8, mGhrelin; for Results of assays of transcription factor (+/- ligand) with mGhrelin: Table 6d, luciferase activity relative to control (control = 1.00)
Procedure, shortened: as §1

B1: RXRb: Retinoic X Receptor β (NR2B2), cDNA driver (protein, UniProt P28702 1-533, looked up)
Retinoic acid receptor …: MSWAARPPFLPQRHAAGQCGPVGVRKEMHCGVASRWRRRRPWLDPAAAAAAAVAGGEQQTPEPEPGEAGRDGMGDSGRDSRSPDSSSPNPLPQGVPPPSPPGPPLPPSTAPSLGGSGAPPPPPMPPPPLGSPFPVISSSMGSPGLPPPAPPGFSGPVSSPQINSTVSLPGGGSGPPEDVKPPVLGVRGLHCPPPPGGPGAGKRLCAICGDRSSGKHYGVYSCEGCKGFFKRTIRKDLTYSCRDNKDCTVDKRQRNRCQYCRYQKCLATGMKREAVQEERQRGKDKDGDGEGAGGAPEEMPVDRILEAELAVEQKSDQGVEGPGGTGGSGSSPNDPVTNICQAADKQLFTLVEWAKRIPHFSSLPLDDQVILLRAGWNELLIASFSHRSIDVRDGILLATGLHVHRNSAHSAGVGAIFDRVLTELVSKMRDMRMDKTELGCLRAIILFNPDAKGLSNPSEVEVLREKVYASLETYCKQKYPEQQGRFAKLLLRLPALRSIGLKCLEHLFFFKLIGDTPIDTFLMEMLEAPHQLA
In the case of B1, the “luciferase activity normalized to lacZ activity and to a control, mCAR” value (“luciferase activity normalized … mCAR” for short) (mCAR promoter) is reported as 1.27, the “Luc. act., normalized to lacZ” value (mCAR promoter) is reported as 48.6 and the “Normalized Luc. act., normalized to control” value (mCAR promoter) is reported as 1.3. The “Results of assays of transcription factor (+/- ligand) with mNPY” value (“Results of assays … with mNPY” below) (mNPY promoter) was 0.80, the “Luc. act., normalized to lacZ” value (mNPY promoter) was 66.9 and the “Normalized Luc. act., normalized to control” value (mNPY promoter) was 0.8. The “Luc. act., normalized to lacZ” value (mDio1 promoter) was 4.4, the “Normalized Luc. act., normalized to control” value (mDio1 promoter) was 1.0 and the “mDio1 promoter reporter activity” value (mDio1 promoter) was 0.99. The “luciferase activity normalized to lacZ activity and to a control, hCAR” value (shortened to “luciferase activity normalized … hCAR”) (hCAR promoter) was 0.95, the “Luc. act., normalized to lacZ” value (hCAR promoter) was 30.1 and the “Normalized Luc. act., normalized to control” value (hCAR promoter) was 1.0. The “Luc. act., normalized to lacZ” value (mGhrelin promoter) was 62.9, the “Normalized Luc. act., normalized to control” value (mGhrelin promoter) was 1.2 and the “Results of assays of transcription factor (+/- ligand) with mGhrelin” value (“Results of assays … with mGhrelin” for short) (mGhrelin promoter) was 1.20.

B2: RXRg: Retinoic X Receptor γ (NR2B3), cDNA driver (protein, UniProt P48443 1-463, looked up)
Retinoic acid receptor …: MYGNYSHFMKFPAGYGGSPGHTGSTSMSPSAALSTGKPMDSHPSYTDTPVSAPRTLSAVGTPLNALGSPYRVITSAMGPPSGALAAPPGINLVAPPSSQLNVVNSVSSSEDIKPLPGLPGIGNMNYPSTSPGSLVKHICAICGDRSSGKHYGVYSCEGCKGFFKRTIRKDLIYTCRDNKDCLIDKRQRNRCQYCRYQKCLVMGMKREAVQEERQRSRERAESEAECATSGHEDMPVERILEAELAVEPKTESYGDMNMENSTNDPVTNICHAADKQLFTLVEWAKRIPHFSDLTLEDQVILLRAGWNELLIASFSHRSVSVQDGILLATGLHVHRSSAHSAGVGSIFDRVLTELVSKMKDMQMDKSELGCLRAIVLFNPDAKGLSNPSEVETLREKVYATLEAYTKQKYPEQPGRFAKLLLRLPALRSIGLKCLEHLFFFKLIGDTPIDTFLMEMLETPLQIT
For B2, the “luciferase activity normalized … mCAR” value (mCAR promoter) was 1.25, the “Luc. act., normalized to lacZ” value (mCAR promoter) was 47.5 and the “Normalized Luc. act., normalized to control” value (mCAR promoter) was 1.2. The “Results of assays … with mNPY” value (mNPY promoter) was 0.97, the “Luc. act., normalized to lacZ” value (mNPY promoter) was 81.2 and the “Normalized Luc. act., normalized to control” value (mNPY promoter) was 1.0. The “Luc. act., normalized to lacZ” value (mDio1 promoter) was 6.6, the “Normalized Luc. act., normalized to control” value (mDio1 promoter) was 1.5 and the “mDio1 promoter reporter activity” value (mDio1 promoter) was 1.48. The “luciferase activity normalized … hCAR” value (hCAR promoter) was 0.93, the “Luc. act., normalized to lacZ” value (hCAR promoter) was 29.3 and the “Normalized Luc. act., normalized to control” value (hCAR promoter) was 0.9. The “Luc. act., normalized to lacZ” value (mGhrelin promoter) was 59.0, the “Normalized Luc. act., normalized to control” value (mGhrelin promoter) was 1.1 and the “Results of assays … with mGhrelin” value (mGhrelin promoter) was 1.13.

B3: RORb: RAR-related Orphan Receptor β (NR1F2), cDNA driver (protein, UniProt Q92753 1-470, looked up)
Nuclear receptor ROR-beta: MCENQLKTKADATAQIEVIPCKICGDKSSGIHYGVITCEGCKGFFRRSQQNNASYSCPRQRNCLIDRTNRNRCQHCRLQKCLALGMSRDAVKFGRMSKKQRDSLYAEVQKHQQRLQEQRQQQSGEAEALARVYSSSISNGLSNLNNETSGTYANGHVIDLPKSEGYYNVDSGQPSPDQSGLDMTGIKQIKQEPIYDLTSVPNLFTYSSFNNGQLAPGITMTEIDRIAQNIIKSHLETCQYTMEELHQLAWQTHTYEEIKAYQSKSREALWQQCAIQITHAIQYVVEFAKRITGFMELCQNDQILLLKSGCLEVVLVRMCRAFNPLNNTVLFEGKYGGMQMFKALGSDDLVNEAFDFAKNLCSLQLTEEEIALFSSAVLISPDRAWLIEPRKVQKLQEKIYFALQHVIQKNHLDDETLAKLIAKIPTITAVCNLHGEKLQVFKQSHPEIVNTLFPPLYKELFNPDCATGCK
In the case of B3, the “luciferase activity normalized … mCAR” value (mCAR promoter) is reported as 1.15, the “Luc. act., normalized to lacZ” value (mCAR promoter) is reported as 43.7 and the “Normalized Luc. act., normalized to control” value (mCAR promoter) is reported as 1.1. For the same molecule, the “Results of assays … with mNPY” value (mNPY promoter) was 1.12, the “Luc. act., normalized to lacZ” value (mNPY promoter) was 94.2 and the “Normalized Luc. act., normalized to control” value (mNPY promoter) was 1.1. The “Luc. act., normalized to lacZ” value (mDio1 promoter) was 6.4, the “Normalized Luc. act., normalized to control” value (mDio1 promoter) was 1.4 and the “mDio1 promoter reporter activity” value (mDio1 promoter) was 1.44. The “luciferase activity normalized … hCAR” value (hCAR promoter) was 1.05, the “Luc. act., normalized to lacZ” value (hCAR promoter) was 33.3 and the “Normalized Luc. act., normalized to control” value (hCAR promoter) was 1.1. For the same molecule, the “Luc. act., normalized to lacZ” value (mGhrelin promoter) was 89.1, the “Normalized Luc. act., normalized to control” value (mGhrelin promoter) was 1.7 and the “Results of assays … with mGhrelin” value (mGhrelin promoter) was 1.70.
